Measurements from patent publication US20020137677A1.

Tests used:
Assay in all cases: cell-based or functional assay
[1] = biological target: human zalpha11 receptor, full-length, on cells (human) (UniProt Q9HBE5)
[2] = biological target: mouse zalpha11 receptor, on cells (mouse)
[3] = biological target: human zalpha11 Ligand (human) (UniProt Q9HBE4)
Chain of UniProt Q9HBE4 (Q9HBE4 32-162 limits assumed, form in doubt): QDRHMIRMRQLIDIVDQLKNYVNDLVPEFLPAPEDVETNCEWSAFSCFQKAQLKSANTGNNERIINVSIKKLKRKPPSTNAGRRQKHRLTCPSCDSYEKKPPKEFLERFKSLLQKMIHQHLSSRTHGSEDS

Chain of UniProt Q9HBE5 (Q9HBE5 20-538 limits assumed): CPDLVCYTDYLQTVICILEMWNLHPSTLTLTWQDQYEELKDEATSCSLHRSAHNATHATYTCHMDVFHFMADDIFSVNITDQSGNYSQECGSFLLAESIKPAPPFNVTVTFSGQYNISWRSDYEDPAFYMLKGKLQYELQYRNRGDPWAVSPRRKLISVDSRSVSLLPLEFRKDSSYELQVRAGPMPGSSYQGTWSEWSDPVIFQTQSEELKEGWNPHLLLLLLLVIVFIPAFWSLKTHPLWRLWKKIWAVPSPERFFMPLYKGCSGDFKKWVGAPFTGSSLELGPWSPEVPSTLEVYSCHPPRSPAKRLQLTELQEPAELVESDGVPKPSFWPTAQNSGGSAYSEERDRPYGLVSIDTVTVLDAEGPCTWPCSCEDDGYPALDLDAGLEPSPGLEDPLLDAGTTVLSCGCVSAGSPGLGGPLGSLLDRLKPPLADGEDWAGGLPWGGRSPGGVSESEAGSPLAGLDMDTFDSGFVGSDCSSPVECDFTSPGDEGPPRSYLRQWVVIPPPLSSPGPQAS

STAT luciferase reporter response of BaF3/KZ134/Zalpha11 cells (fold over media-only control) [1] | proliferation of BaF3/Zalpha11 cells (Alamar Blue) (fold over background) [1] | STAT luciferase reporter response of untransfected BaF3/KZ134 control cells [2] [fold] | inhibition of BaF3/zalpha11 proliferation (Alamar Blue), concentration completely inhibiting 3 ng/ml human zalpha11 Ligand [3] [µg/mL] | potency in inhibiting human zalpha11 Ligand relative to the homodimeric soluble zalpha11 receptor (zalpha11-Fc4) [3] [fold] | Substance
40 | 5 | 5 |  |  | mouse zalpha11 Ligand
 |  |  | 0.312 | 30 to 100 | soluble human zalpha11 receptor/human IL-2Rγ receptor heterodimer (hzalpha11/IgGγ1 + hIL-2Rγ/human κ light chain) (Fc fusion)
